US20210261648A1 (published 2021)

T1: FcγRIIb extracellular domain with C-terminal His tag (human, UniProt P31994 43-217)
T1 construct: extracellular domain; also called FcgRIIb
T1 sequence (looked up): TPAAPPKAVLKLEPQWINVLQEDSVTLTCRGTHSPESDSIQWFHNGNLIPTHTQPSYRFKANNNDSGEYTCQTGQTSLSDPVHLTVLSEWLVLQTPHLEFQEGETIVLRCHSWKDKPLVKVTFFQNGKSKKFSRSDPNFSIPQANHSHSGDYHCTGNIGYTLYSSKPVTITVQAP

T2: FcγRIIa type R (human, UniProt P12318 34-217)
T2 chain: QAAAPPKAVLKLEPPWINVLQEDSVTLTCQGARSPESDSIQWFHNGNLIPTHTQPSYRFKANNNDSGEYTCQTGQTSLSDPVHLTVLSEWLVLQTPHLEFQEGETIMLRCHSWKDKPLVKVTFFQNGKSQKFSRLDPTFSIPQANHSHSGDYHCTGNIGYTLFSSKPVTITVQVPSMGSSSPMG

T3: FcγRIIb (human, UniProt P31994 43-217)
T3 construct: extracellular domain; also called FcgRIIb; CD32B
T3 sequence (looked up): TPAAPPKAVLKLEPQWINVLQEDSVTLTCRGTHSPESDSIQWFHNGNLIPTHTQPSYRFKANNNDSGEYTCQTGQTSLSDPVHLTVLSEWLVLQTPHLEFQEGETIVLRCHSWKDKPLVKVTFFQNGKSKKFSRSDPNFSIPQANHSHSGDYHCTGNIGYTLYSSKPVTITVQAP


Assays:
[1] = biological target: T1, FcγRIIb extracellular domain with …; test: SPR, captured antibody, FcgR analyte
Procedure: (§1) Relative binding activities were calculated for the results of analyzing interactions with the respective FcγRs according to the following method.

[2] = biological target: T4, FcγRIa extracellular domain with C-terminal His tag (human, UniProt P12314 16-292); test: SPR, captured antibody, FcgR analyte
T4 construct: also called FcgRIa
Procedure: as §1

FcγRIa = biological target: T5, FcγRIa (human, UniProt P12314 16-292); test: SPR (Biacore), captured antibody, soluble FcγR
T5 construct: Whole entry named; also called FcgRIa; CD64A

FcγRIIa type R = biological target: T2, FcγRIIa type R; test: SPR (Biacore), captured antibody, soluble FcγR
FcγRIIb = biological target: T3, FcγRIIb; test: SPR (Biacore), captured antibody, soluble FcγR

T4 sequence (P12314 16-292): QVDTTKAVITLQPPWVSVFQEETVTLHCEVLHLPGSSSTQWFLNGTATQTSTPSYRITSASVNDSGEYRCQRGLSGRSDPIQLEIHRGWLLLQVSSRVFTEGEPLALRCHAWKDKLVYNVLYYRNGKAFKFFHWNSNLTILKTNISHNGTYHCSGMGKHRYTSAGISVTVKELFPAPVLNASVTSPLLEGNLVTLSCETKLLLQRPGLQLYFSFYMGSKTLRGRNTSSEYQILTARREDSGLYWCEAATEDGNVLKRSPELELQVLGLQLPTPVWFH
T5 sequence (P12314 16-292): as above

Row | relative binding activity [1] | relative binding activity [2] | Kd (FcγRIa) | Kd (FcγRIIa type R) | Kd (FcγRIIb) | Binder
1 | – | – | 4.5 nM | 110 nM | 2.4 nM | IL6R-BP490/IL6R-L (antibody, human IgG1, kappa, Alterations in EU numbering, introduced into IL6R-B3) heavy: QVQLQESGPGLVKPSETLSLTCAVSGHSISHDHAWSWVRQPPGEGLEWIGFISYSGITNYNPSLQGRVTISRDNSKNTLYLQMNSLRAEDTAVYYCARSLARTTAMDYWGEGTLVTVSSASTKGPSVFPLAPSSKSTSGGTAALGCLVKDYFPEPVTVSWNSGALTSGVHTFPAVLQSSGLYSLSSVVTVPSSSLGTQTYICNVNHKPSNTKVDKKVEPKSCDKTHTCPPCPAPELLGDDSVFLFPPKPKDTLMISRTPEVTCVVIDVAEEDGEVKFNWYVDGVEVHNAKTKPREEQYNSTYRVVSVLTVLHQDWLNGKEYKCKVSNKALPRPIEKTISKAKGQPREPQVYTLPPSRDELTKNQVSLTCLVKGFYPSDIAVEWESNGQPENNYKTTPPVLDSDGSFFLYSKLTVDKSRWQQGNVFSCSVMHEALHNHYTQESLSLSP light: not shown
2 | – | – | 3.1 nM | 120 nM | 3.4 nM | IL6R-BP506/IL6R-L (antibody, human IgG1, kappa, Alterations in EU numbering, introduced into IL6R-B3) heavy: QVQLQESGPGLVKPSETLSLTCAVSGHSISHDHAWSWVRQPPGEGLEWIGFISYSGITNYNPSLQGRVTISRDNSKNTLYLQMNSLRAEDTAVYYCARSLARTTAMDYWGEGTLVTVSSASTKGPSVFPLAPSSKSTSGGTAALGCLVKDYFPEPVTVSWNSGALTSGVHTFPAVLQSSGLYSLSSVVTVPSSSLGTQTYICNVNHKPSNTKVDKKVEPKSCDKTHTCPPCPAPDLLGDDSVFLFPPKPKDTLMISRTPEVTCVVIDVAEEDGPVKFNWYVDGVEVHNAKTKPREEQDNSTYRVVSVLTVLHQDWLNGKEYKCKVSNKALPRPIEKTISKAKGQPREPQVYTLPPSRDELTKNQVSLTCLVKGFYPSDIAVEWESNGQPENNYKTTPPVLDSDGSFFLYSKLTVDKSRWQQGNVFSCSVMHEALHNHYTQESLSLSP light: not shown
3 | – | – | 2.6 nM | 100 nM | 2.9 nM | IL6R-BP507/IL6R-L (antibody, human IgG1, kappa, Alterations in EU numbering, introduced into IL6R-B3) heavy: QVQLQESGPGLVKPSETLSLTCAVSGHSISHDHAWSWVRQPPGEGLEWIGFISYSGITNYNPSLQGRVTISRDNSKNTLYLQMNSLRAEDTAVYYCARSLARTTAMDYWGEGTLVTVSSASTKGPSVFPLAPSSKSTSGGTAALGCLVKDYFPEPVTVSWNSGALTSGVHTFPAVLQSSGLYSLSSVVTVPSSSLGTQTYICNVNHKPSNTKVDKKVEPKSCDKTHTCPPCPAPDLLGDDSVFLFPPKPKDTLMISRTPEVTCVVIDVAEEDGPVKFNWYVDGVEVHNAKTKPREEQYNSTYRVVSVLTVLHQDWLNGKEYKCKVSNKALPRPIEKTISKAKGQPREPQVYTLPPSRDELTKNQVSLTCLVKGFYPSDIAVEWESNGQPENNYKTTPPVLDSDGSFFLYSKLTVDKSRWQQGNVFSCSVMHEALHNHYTQESLSLSP light: not shown
4 | – | – | 9.4 nM | 120 nM | 3.8 nM | IL6R-BP531/IL6R-L (antibody, human IgG1, kappa, Alterations in EU numbering, introduced into IL6R-B3) heavy: QVQLQESGPGLVKPSETLSLTCAVSGHSISHDHAWSWVRQPPGEGLEWIGFISYSGITNYNPSLQGRVTISRDNSKNTLYLQMNSLRAEDTAVYYCARSLARTTAMDYWGEGTLVTVSSASTKGPSVFPLAPSSKSTSGGTAALGCLVKDYFPEPVTVSWNSGALTSGVHTFPAVLQSSGLYSLSSVVTVPSSSLGTQTYICNVNHKPSNTKVDKKVEPKSCDKTHTCPPCPAPDLLGDDSVFLFPPKPKDTLMISRTPEVTCVVIDVGEEDGEVKFNWYVDGVEVHNAKTKPREEQDNSTYRVVSVLTVLHQDWLNGKEYKCKVSNKALPRPIEKTISKAKGQPREPQVYTLPPSRDELTKNQVSLTCLVKGFYPSDIAVEWESNGQPENNYKTTPMVLDSDGSFFLYSKLTVDKSRWQQGNVFSCSVMHEALHNHYTQESLSLSP light: not shown
5 | – | – | – | 850 nM | 20 nM | IL6R-BP557/IL6R-L (antibody, human IgG1, kappa, Alterations in EU numbering, introduced into IL6R-B3) heavy: QVQLQESGPGLVKPSETLSLTCAVSGHSISHDHAWSWVRQPPGEGLEWIGFISYSGITNYNPSLQGRVTISRDNSKNTLYLQMNSLRAEDTAVYYCARSLARTTAMDYWGEGTLVTVSSASTKGPSVFPLAPSSKSTSGGTAALGCLVKDYFPEPVTVSWNSGALTSGVHTFPAVLQSSGLYSLSSVVTVPSSSLGTQTYICNVNHKPSNTKVDKKVEPKSCDKTHTCPPCPAPELLGDDSVFLFPPKPKDTLMISRTPEVTCVVVDVGDEDGEVKFNWYVDGVEVHNAKTKPREEQDNSTYRVVSVLTVLHQDWLNGKEYKCKVSNKALPRPIEKTISKAKGQPREPQVYTLPPSRDELTKNQVSLTCLVKGFYPSDIAVEWESNGQPENNYKTTPPVLDSDGSFFLYSKLTVDKSRWQQGNVFSCSVMHEALHNHYTQESLSLSP light: not shown

Second part, the binder before the results:

Row | Binder | relative binding activity [1] | relative binding activity [2] | Kd (FcγRIa) | Kd (FcγRIIa type R) | Kd (FcγRIIb)
6 | IL6R-BP193/IL6R-L (antibody, human IgG1, kappa) heavy: QVQLQESGPGLVKPSETLSLTCAVSGHSISHDHAWSWVRQPPGEGLEWIGFISYSGITNYNPSLQGRVTISRDNSKNTLYLQMNSLRAEDTAVYYCARSLARTTAMDYWGEGTLVTVSSASTKGPSVFPLAPSSKSTSGGTAALGCLVKDYFPEPVTVSWNSGALTSGVHTFPAVLQSSGLYSLSSVVTVPSSSLGTQTYICNVNHKPSNTKVDKKVEPKSCDKTHTCPPCPAPDLLGGDSVFLFPPKPKDTLMISRTPEVTCVVVDVSDEDGEVKFNWYVDGVEVHNAKTKPREEQYNSTYRVVSVLTVLHQDWLNGKEYKCKVSNKALPKPIEKTISKAKGQPREPQVYTLPPSRDELTKNQVSLTCLVKGFYPSDIAVEWESNGQPENNYKTTPPVLDSDGSFFLYSKLTVDKSRWQQGNVFSCSVMHEALHNHYTQESLSLSP light: not shown | 173 relative (IL6R-BF648/IL6R-L = 100) | 113 relative (IL6R-BF648/IL6R-L = 100) | – | – | –
7 | IL6R-BP204/IL6R-L (antibody, human IgG1, kappa) heavy: QVQLQESGPGLVKPSETLSLTCAVSGHSISHDHAWSWVRQPPGEGLEWIGFISYSGITNYNPSLQGRVTISRDNSKNTLYLQMNSLRAEDTAVYYCARSLARTTAMDYWGEGTLVTVSSASTKGPSVFPLAPSSKSTSGGTAALGCLVKDYFPEPVTVSWNSGALTSGVHTFPAVLQSSGLYSLSSVVTVPSSSLGTQTYICNVNHKPSNTKVDKKVEPKSCDKTHTCPPCPAPDLLGGDSVFLFPPKPKDTLMISRTPEVTCVVVDVSHEDGEVKFNWYVDGVEVHNAKTKPREEQYNSTYRVVSVLTVLHQDWLNGKEYKCKVSNAALPRPIEKTISKAKGQPREPQVYTLPPSRDELTKNQVSLTCLVKGFYPSDIAVEWESNGQPENNYKTTPPVLDSDGSFFLYSKLTVDKSRWQQGNVFSCSVMHEALHNHYTQESLSLSP light: not shown | 165 relative (IL6R-BF648/IL6R-L = 100) | 110 relative (IL6R-BF648/IL6R-L = 100) | – | – | –
8 | IL6R-BP205/IL6R-L (antibody, human IgG1, kappa) heavy: QVQLQESGPGLVKPSETLSLTCAVSGHSISHDHAWSWVRQPPGEGLEWIGFISYSGITNYNPSLQGRVTISRDNSKNTLYLQMNSLRAEDTAVYYCARSLARTTAMDYWGEGTLVTVSSASTKGPSVFPLAPSSKSTSGGTAALGCLVKDYFPEPVTVSWNSGALTSGVHTFPAVLQSSGLYSLSSVVTVPSSSLGTQTYICNVNHKPSNTKVDKKVEPKSCDKTHTCPPCPAPDLLGGDSVFLFPPKPKDTLMISRTPEVTCVVVDVSHEDGEVKFNWYVDGVEVHNAKTKPREEQDNSTYRVVSVLTVLHQDWLNGKEYKCKVSNKALPRPIEKTISKAKGQPREPQVYTLPPSRDELTKNQVSLTCLVKGFYPSDIAVEWESNGQPENNYKTTPPVLDSDGSFFLYSKLTVDKSRWQQGNVFSCSVMHEALHNHYTQESLSLSP light: not shown | 167 relative (IL6R-BF648/IL6R-L = 100) | 97 relative (IL6R-BF648/IL6R-L = 100) | – | – | –
9 | IL6R-BP426/IL6R-L (antibody, human IgG1, kappa, Alterations in EU numbering, introduced into IL6R-B3) heavy: QVQLQESGPGLVKPSETLSLTCAVSGHSISHDHAWSWVRQPPGEGLEWIGFISYSGITNYNPSLQGRVTISRDNSKNTLYLQMNSLRAEDTAVYYCARSLARTTAMDYWGEGTLVTVSSASTKGPSVFPLAPSSKSTSGGTAALGCLVKDYFPEPVTVSWNSGALTSGVHTFPAVLQSSGLYSLSSVVTVPSSSLGTQTYICNVNHKPSNTKVDKKVEPKSCDKTHTCPPCPAPDLLGDDSVFLFPPKPKDTLMISRTPEVTCVVVDVAEDDGEVKFNWYVDGVEVHNAKTKPREEQYNSTYRVVSVLTVLHQDWLNGKEYKCKVSNKALPRPIEKTISKAKGQPREPQVYTLPPSRDELTKNQVSLTCLVKGFYPSDIAVEWESNGQPENNYKTTPPVLDSDGSFFLYSKLTVDKSRWQQGNVFSCSVMHEALHNHYTQESLSLSP light: not shown | – | – | 1 nM | – | –
10 | IL6R-BP435/IL6R-L (antibody, human IgG1, kappa, Alterations in EU numbering, introduced into IL6R-B3) heavy: QVQLQESGPGLVKPSETLSLTCAVSGHSISHDHAWSWVRQPPGEGLEWIGFISYSGITNYNPSLQGRVTISRDNSKNTLYLQMNSLRAEDTAVYYCARSLARTTAMDYWGEGTLVTVSSASTKGPSVFPLAPSSKSTSGGTAALGCLVKDYFPEPVTVSWNSGALTSGVHTFPAVLQSSGLYSLSSVVTVPSSSLGTQTYICNVNHKPSNTKVDKKVEPKSCDKTHTCPPCPAPDLLGDDSVFLFPPKPKDTLMISRTPEVTCVVVDVSDEDGEVKFNWYVDGVEVHNAKTKPREEQDNSTYRVVSVLTVLHQDWLNGKEYKCKVSNAALPRPTEKTISKAKGQPREPQVYTLPPSRDELTKNQVSLTCLVKGFYPSDIAVEWESNGQPENNYKTTPPVLDSDGSFFLYSKLTVDKSRWQQGNVFSCSVMHEALHNHYTQESLSLSP light: not shown | – | – | 1 nM | – | –
11 | IL6R-BP480/IL6R-L (antibody, human IgG1, kappa, Alterations in EU numbering, introduced into IL6R-B3) heavy: QVQLQESGPGLVKPSETLSLTCAVSGHSISHDHAWSWVRQPPGEGLEWIGFISYSGITNYNPSLQGRVTISRDNSKNTLYLQMNSLRAEDTAVYYCARSLARTTAMDYWGEGTLVTVSSASTKGPSVFPLAPSSKSTSGGTAALGCLVKDYFPEPVTVSWNSGALTSGVHTFPAVLQSSGLYSLSSVVTVPSSSLGTQTYICNVNHKPSNTKVDKKVEPKSCDKTHTCPPCPAPDLLGDDSVFLFPPKPKDTLMISRTPEVTCVVVDLSEDDGEVKFNWYVDGVEVHNAKTKPREEQYNSTYRVVSVLTVLHQDWLNGKEYKCKVSNKALPAPIEKTISKAKGQPREPQVYTLPPSRDELTKNQVSLTCLVKGFYPSDIAVEWESNGQPENNYKTTPPVLDSDGSFFLYSKLTVDKSRWQQGNVFSCSVMHEALHNHYTQESLSLSP light: not shown | – | – | – | 6300 nM | 200 nM
